The values below come from patent US20030060605A1 (LA JOLLA INSTITUTE FOR ALLERGY AND IMMUNOLOGY, published 2003).

The target in assay [1] is T1, p30 (LIGHT), the 30 kDa cell surface HVEM ligand of activated II-23.D7 T hybridoma cells and human T cells (human, UniProt O43557 1-240).
T1 construct: whole, on cells; On the cell surface in flow cytometry; in NP40 detergent extracts in the precipitations
As to the kind of experiment: flow cytometry, saturation binding on activated II-23.D7 cells; whole activated (PMA + ionomycin) II-23.D7 cells; apparent half-maximal binding by flow cytometry. For orientation: Flow cytometry measures light scatter and fluorescence of single cells or particles in a stream.

For assay [2], the target named is T2, LTβ (33 kDa) and LTα (23-25 kDa) complex from detergent extracts of PMA activated II-23.D7 cells (human, UniProt P01374 35-205; Q06643 1-244).
T2 construct: Native complex, in NP40 extract; also called LTα1β2 complex; surface LTα1β2
T2 sequence (looked up) 1: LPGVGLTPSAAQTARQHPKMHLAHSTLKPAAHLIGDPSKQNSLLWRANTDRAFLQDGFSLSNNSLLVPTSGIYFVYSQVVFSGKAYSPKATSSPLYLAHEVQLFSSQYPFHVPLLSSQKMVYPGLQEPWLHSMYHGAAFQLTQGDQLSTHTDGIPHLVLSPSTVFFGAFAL
T2 sequence (looked up) 2: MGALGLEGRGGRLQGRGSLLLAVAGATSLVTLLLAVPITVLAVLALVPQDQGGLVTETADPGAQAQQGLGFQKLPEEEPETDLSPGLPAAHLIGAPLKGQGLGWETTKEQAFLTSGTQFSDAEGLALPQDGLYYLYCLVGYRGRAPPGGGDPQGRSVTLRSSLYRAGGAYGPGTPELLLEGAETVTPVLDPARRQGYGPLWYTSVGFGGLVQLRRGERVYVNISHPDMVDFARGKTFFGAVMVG
Description: flow cytometry, II-23.D7 cells activated with PMA alone, goat anti-human IgG-PE; target taken as the surface LTα1β2 of these cells [upper histogram].

For the next assay, the target named is T3, LTαTyr108Phe (UniProt P01374 35-205).
T3 construct: also called LTαY108F; LTα (Y108F)
T3 sequence (looked up): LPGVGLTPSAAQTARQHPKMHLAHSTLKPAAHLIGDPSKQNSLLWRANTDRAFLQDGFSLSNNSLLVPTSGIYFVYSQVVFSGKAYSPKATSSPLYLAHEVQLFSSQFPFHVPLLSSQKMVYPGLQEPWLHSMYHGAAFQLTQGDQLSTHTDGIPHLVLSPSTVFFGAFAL
Description: competition flow cytometry: HVEM:Fc pre-incubated with the ligand, then added to II-23.D7 cells activated with PMA and ionomycin, anti-huIgG-PE.

For assay [3], the target named is soluble HSV gD-1 (glycoprotein D of HSV-1) (herpes simplex virus type 1, UniProt Q69091 26-331). As to the kind of experiment: binding inhibition experiments, flow cytometry.
Assay [4] deals with gD-1 (Δ290-299t), mutant of soluble HSV gD-1 (herpes simplex virus type 1, UniProt Q69091 26-331). As to the kind of experiment: binding inhibition experiments, flow cytometry.

T1 sequence (O43557 whole entry): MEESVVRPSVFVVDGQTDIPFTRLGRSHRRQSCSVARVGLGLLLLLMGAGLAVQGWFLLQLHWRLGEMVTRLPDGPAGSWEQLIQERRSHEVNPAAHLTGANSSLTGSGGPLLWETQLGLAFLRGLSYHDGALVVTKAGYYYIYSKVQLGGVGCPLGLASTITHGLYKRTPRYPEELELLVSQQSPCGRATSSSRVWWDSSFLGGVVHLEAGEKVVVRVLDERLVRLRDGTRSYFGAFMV

B1: HVEM:Fc fusion protein (extracellular region of HVEM, 1 to K184, fused to the Fc of human IgG1) (Fc fusion, UniProt Q92956 39-184, looked up)
chain: LPSCKEDEYPVGSECCPKCSPGYRVKEACGELTGTVCEPCPPGTYIAHLNGLSKCLQCQMCDPAMGLRASRNCSRTENAVCGCSPGHFCIVQDGDHCAACRAYATSSPGQRVQKGGTESQDTLCQNCPPGTFSPNGTLEECQHQTK
notes: range 1-184; Made in the baculovirus vector pVL1392; Residues 1-184 include the signal peptide; also called huHVEM:Fc; hu HVEM:Fc; not shown: Fc of human IgG1
Regarding B1, the 50% effective concentration (EC50) (commonly the concentration at which the effect is half-maximal) in assay [1] is 20 nM. Further, the binding result (in assay [2]; with LTαTyr108Phe) was “no binding” in each case.

B2: TNFR60:Fc (Fc fusion, UniProt P19438 30-211, looked up)
chain: LVPHLGDREKRDSVCPQGKYIHPQNNSICCTKCHKGTYLYNDCPGPGQDTDCRECESGSFTASENHLRHCLSCSKCRKEMGQVEISSCTVDRDTVCGCRKNQYRHYWSENLFQCFNCSLCLNGTVHLSCQEKQNTVCTCHAGFFLRENECVSCSNCKKSLECTKLCLPQIENVKGTEDSGTT
notes: also called TNFR:Fc; TNFR1-Fc; not shown: Fc region of human IgG1
Turning to B2, the binding result in assay [3] and in assay [4] was “no binding” in each case.
